For orientation: EC50 means the midpoint of the concentration-response curve. A lower EC50 goes with a more potent agent. As a reminder, the Kd is the free concentration of one partner at which half of the binding sites on the other are occupied at equilibrium, for simple one-to-one binding. Low values mean higher affinity, high ones lower affinity. One may read the IC50 as the concentration needed to halve the response being measured. Read a low IC50 as higher potency.

This note sets out measurements from patent publication US20130130315A1 (ADVANCECOR, published 2013).

The target in assay [1] is T1, CD133 protein (UniProt O43490 20-865, limits assumed).
T1 construct: whole, on cells; Presented on AC133/293 cells: paraformaldehyde-fixed in the cellular ELISA, unfixed in the phage FACS; also called CD133 antigen; AC133
T1 sequence (looked up): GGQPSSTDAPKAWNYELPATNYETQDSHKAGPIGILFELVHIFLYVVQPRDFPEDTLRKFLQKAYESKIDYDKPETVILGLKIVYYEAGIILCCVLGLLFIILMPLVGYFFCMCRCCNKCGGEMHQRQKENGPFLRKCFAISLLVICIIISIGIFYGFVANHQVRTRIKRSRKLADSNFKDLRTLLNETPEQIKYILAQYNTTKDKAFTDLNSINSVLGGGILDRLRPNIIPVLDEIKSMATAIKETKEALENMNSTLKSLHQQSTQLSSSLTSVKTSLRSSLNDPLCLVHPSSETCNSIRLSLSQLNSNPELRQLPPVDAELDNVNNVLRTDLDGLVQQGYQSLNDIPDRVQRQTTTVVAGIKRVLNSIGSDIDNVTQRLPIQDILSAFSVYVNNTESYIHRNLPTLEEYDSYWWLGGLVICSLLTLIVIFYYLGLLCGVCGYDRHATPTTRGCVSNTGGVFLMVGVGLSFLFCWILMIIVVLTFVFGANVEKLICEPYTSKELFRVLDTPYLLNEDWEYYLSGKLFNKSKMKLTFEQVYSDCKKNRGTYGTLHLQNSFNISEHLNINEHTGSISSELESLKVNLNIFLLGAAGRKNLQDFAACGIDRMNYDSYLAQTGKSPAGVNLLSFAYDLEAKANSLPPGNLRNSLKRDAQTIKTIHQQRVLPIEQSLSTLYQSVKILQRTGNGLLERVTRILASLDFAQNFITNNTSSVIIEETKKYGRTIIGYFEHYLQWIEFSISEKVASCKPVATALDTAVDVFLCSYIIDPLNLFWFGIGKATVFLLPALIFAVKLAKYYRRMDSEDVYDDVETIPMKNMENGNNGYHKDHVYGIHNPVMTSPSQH
As to the kind of experiment: cellular ELISA on fixed AC133/293 cells. Here is the method:
1×10⁵ cells in 0.2 ml of medium were added to each well and incubated o/n at 37° C., 5% CO₂ to allow cells to attach to the surface of the plate. The next day wells were washed once with 0.2 ml PBS and fixed with 0.1 ml 2% Paraformaldehyde (in PBS, pH 7.4) for 10-20 min at RT. Wells were washed with PBS-T (PBS+0.1% Tween-20) and blocked with either 1× RotiBlock or 3% milk in PBS-T for 1 hour at RT. After washing with PBS-T, serial dilutions of the respective antibody were added to the wells and incubated at RT for at least one hour while shaking. After washing with PBS-T, 0.1 ml of StrepMAb-Classic-HRP (1:10000 in PBS-T, lba BioTagnology, Göttingen, Germany) or of horseradish peroxidase linked anti-mouse IgG (1:10000 in PBS-T, Dianova, Hamburg, Germany) was added and incubated at RT for one hour with shaking. After washing with PBS-T, 0.1 ml of 1-Step Ultra TMB-ELISA substrate (Thermo Scientific, Braunschweig, Germany) was added and incubated until an adequate blue staining developed. To stop the reaction 0.1 ml 1 M H₂SO₄ was added to each well and absorbance at 450 nm and 595 nm as a reference was measured with an infinite F200 plate reader (TECAN, Männedorf, Switzerland). […] Signals were detected using an anti-mouse IgG-HRP antibody (1:10000 in PBS-T, Dianova, Hamburg, Germany). […]
In general terms: In an ELISA, binding on a coated surface is turned into a signal by an enzyme label.

Assay [2] concerns the target T2, CD133 protein (UniProt O43490 20-865).
T2 chain: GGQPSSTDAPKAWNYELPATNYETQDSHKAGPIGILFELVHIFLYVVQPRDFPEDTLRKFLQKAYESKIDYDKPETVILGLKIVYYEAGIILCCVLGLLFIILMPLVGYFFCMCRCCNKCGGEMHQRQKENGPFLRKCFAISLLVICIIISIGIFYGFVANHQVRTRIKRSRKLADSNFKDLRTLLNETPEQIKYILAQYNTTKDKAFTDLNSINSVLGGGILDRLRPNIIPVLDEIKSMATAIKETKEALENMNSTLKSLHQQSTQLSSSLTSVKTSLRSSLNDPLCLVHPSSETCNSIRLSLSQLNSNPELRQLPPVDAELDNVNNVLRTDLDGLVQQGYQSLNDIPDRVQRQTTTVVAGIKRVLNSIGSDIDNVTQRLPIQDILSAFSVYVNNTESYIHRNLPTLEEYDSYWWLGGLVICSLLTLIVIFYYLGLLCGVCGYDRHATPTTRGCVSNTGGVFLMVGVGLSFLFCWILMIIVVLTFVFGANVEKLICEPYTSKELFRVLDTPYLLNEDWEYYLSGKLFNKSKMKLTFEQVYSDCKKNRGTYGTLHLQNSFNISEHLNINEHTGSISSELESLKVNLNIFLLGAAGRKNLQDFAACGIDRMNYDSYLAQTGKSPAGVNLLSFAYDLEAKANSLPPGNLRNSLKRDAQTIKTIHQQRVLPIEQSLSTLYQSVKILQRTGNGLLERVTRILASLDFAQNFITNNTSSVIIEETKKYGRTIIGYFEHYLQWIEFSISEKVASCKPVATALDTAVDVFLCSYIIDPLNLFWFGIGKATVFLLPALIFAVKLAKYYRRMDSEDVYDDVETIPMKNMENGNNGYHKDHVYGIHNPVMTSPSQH
As to the kind of experiment: FACS; panel A, Median FI. For orientation: A flow cytometer gives signals particle by particle.

Assay [3] deals with T2, CD133 protein. The assay can be described thus: FACS; panel A, Geo-Mean FI.
In assay [4] the target is T1, CD133 protein. As to the kind of experiment: FACS of phage dilution series on AC133/293 cells.
A further assay deals with T3, bovine collagen I (bovine, UniProt P02453 162-1217; P02465 80-1117, limits assumed).
T3 construct: also called immobilized collagen I; soluble collagen I
T3 sequence (P02453 162-1217 limits assumed, chain 1 of 2): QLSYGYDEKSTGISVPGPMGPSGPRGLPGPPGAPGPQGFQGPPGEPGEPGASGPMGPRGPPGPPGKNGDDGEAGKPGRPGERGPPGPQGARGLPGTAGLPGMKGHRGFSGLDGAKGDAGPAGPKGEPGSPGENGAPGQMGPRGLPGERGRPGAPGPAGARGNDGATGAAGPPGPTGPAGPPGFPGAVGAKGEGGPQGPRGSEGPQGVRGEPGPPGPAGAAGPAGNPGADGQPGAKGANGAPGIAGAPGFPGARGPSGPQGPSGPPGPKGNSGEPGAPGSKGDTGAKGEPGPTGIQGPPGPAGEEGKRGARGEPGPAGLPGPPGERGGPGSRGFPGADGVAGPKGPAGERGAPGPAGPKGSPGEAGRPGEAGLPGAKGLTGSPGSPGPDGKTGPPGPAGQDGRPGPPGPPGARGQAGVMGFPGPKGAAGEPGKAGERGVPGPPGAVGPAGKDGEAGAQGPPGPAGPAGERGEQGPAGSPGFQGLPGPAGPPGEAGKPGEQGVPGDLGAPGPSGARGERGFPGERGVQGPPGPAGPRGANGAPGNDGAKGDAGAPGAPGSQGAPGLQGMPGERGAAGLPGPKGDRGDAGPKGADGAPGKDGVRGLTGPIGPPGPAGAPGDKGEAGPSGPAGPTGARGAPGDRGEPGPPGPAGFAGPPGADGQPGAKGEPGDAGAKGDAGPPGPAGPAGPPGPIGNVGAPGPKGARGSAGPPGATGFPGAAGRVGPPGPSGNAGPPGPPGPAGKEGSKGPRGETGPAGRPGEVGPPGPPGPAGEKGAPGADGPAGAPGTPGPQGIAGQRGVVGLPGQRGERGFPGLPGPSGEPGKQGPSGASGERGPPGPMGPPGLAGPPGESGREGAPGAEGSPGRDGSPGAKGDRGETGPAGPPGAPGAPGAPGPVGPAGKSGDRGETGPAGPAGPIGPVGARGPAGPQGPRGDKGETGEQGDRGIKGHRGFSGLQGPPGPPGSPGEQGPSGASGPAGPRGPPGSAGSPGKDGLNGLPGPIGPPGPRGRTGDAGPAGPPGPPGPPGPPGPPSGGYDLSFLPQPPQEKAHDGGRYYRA
T3 sequence (P02465 80-1117 limits assumed, chain 2 of 2): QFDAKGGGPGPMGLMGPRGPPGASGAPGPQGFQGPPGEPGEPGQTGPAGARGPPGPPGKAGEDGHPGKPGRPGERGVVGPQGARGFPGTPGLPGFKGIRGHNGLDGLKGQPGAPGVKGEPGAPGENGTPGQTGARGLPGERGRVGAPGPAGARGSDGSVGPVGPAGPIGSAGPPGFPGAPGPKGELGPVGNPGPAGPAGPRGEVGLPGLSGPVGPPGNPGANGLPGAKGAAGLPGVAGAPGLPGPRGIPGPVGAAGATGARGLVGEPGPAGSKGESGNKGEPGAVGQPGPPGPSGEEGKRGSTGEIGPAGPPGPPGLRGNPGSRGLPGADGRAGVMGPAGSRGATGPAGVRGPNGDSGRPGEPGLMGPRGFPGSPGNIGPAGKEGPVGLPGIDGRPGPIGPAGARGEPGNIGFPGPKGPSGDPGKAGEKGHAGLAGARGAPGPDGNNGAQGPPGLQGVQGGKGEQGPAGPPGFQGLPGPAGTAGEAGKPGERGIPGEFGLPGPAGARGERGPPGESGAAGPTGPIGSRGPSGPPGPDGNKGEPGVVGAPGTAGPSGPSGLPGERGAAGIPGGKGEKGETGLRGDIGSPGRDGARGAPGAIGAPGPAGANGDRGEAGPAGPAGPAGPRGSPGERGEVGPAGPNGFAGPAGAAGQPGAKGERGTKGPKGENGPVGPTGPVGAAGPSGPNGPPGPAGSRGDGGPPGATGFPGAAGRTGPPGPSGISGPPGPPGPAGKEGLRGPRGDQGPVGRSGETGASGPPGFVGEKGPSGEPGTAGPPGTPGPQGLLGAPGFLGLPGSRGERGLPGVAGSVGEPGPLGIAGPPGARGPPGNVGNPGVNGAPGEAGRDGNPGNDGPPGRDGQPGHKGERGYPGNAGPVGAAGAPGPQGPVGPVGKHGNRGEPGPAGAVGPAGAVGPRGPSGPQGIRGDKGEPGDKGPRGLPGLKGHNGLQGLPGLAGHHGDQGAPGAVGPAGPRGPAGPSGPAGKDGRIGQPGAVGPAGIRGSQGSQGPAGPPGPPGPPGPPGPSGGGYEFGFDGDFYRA
As to the kind of experiment: ELISA on immobilized bovine collagen I. Here is the method:
Fc-protein was used as negative control.
An Immulon 2 HB 96-well plate (NUNC, Rochester, N.Y.) was coated with 0.1 ml 1 μg/ml bovine collagen I in 15 mM Na₂CO3, 35 mM NaHCO3, pH 9.6 o/n at 4° C. Wells were washed with PBS-T, blocked with 0.1 ml 1× RotiBlock (Roth, Karlsruhe, Germany) in PBS-T for one hour and washed again before addition of 0.1 ml of threefold dilutions of fusion protein. After one hour incubation at RT with shaking, wells were washed with PBS-T. Wells were incubated with 0.1 ml anti-human IgG-HRP (Dianova, Hamburg, Germany) 1:10000 in PBS-T for one hour at RT with shaking. The plate was washed with PBS-T and incubated with 0.1 ml 1-Step Ultra TMB-ELISA (PIERCE, Rockford, Ill.). After blue staining had developed sufficiently, reactions were stopped by addition of 0.1 ml 1 M H₂SO₄. Absorbance was measured at 450 nm and 595 nm as a reference wavelength using an infinite F200 plate reader (TECAN, Männedorf, Switzerland). EC₅₀ values were calculated with Sigma Plot 11 using Four Parameter Logistic.

In assay [5] the target is T1, CD133 protein. As to the kind of experiment: competition cellular ELISA on fixed AC133/293 cells; competitor of 2 nM W6B3H10 mAb. Here is the method:
1×10⁵ cells in 0.2 ml of medium were added to each well and incubated o/n at 37° C., 5% CO₂ to allow cells to attach to the surface of the plate. The next day wells were washed once with 0.2 ml PBS and fixed with 0.1 ml 2% Paraformaldehyde (in PBS, pH 7.4) for 10-20 min at RT. Wells were washed with PBS-T (PBS+0.1% Tween-20) and blocked with either 1× RotiBlock or 3% milk in PBS-T for 1 hour at RT. After washing with PBS-T, serial dilutions of the respective antibody were added to the wells and incubated at RT for at least one hour while shaking. After washing with PBS-T, 0.1 ml of StrepMAb-Classic-HRP (1:10000 in PBS-T, lba BioTagnology, Göttingen, Germany) or of horseradish peroxidase linked anti-mouse IgG (1:10000 in PBS-T, Dianova, Hamburg, Germany) was added and incubated at RT for one hour with shaking. After washing with PBS-T, 0.1 ml of 1-Step Ultra TMB-ELISA substrate (Thermo Scientific, Braunschweig, Germany) was added and incubated until an adequate blue staining developed. To stop the reaction 0.1 ml 1 M H₂SO₄ was added to each well and absorbance at 450 nm and 595 nm as a reference was measured with an infinite F200 plate reader (TECAN, Männedorf, Switzerland). […] Signals were detected using an anti-mouse IgG-HRP antibody (1:10000 in PBS-T, Dianova, Hamburg, Germany).

Values joined by “and” are separate entries in the source; they are usually repeats but may differ in a detail not shown here. Equal values may be shown once.

B1: W6B3H10 monoclonal antibody (antibody, V domains shown)
VH: EVQLQQSGPDLMKPGASVKISCKASGYSFTNYYVHWVKQSLDKSLEWIGYVDPFNGDFNYNQKFKDKATLTVDKSSSTAYMHLSSLTSEDSAVYYCARGGLDWYDTSYWYFDVWGAGTAVTVSS
VL: DILMTQSPKSMSMSLGERVTLSCKASENVDTYVSWYQQKPEQSPKVLIYGASNRYTGVPDRFTGSGSATDFSLTISNVQAEDLADYHCGQSYRYPLTFGAGTKLELK
notes: Mouse monoclonal antibody from hybridoma clone W6B3H10 (subclone of W6B3C1), with gamma heavy chain and kappa light chain; also called W6B3H10 mAb; parental mAb
In turn, B1 displayed an EC50 with CD133 protein [1] of 0.12 nM.

B2: phage m1h harboring the mouse single chain sequence (scFv)
scFv: DILMTQSPKSMSMSLGERVTLSCKASENVDTYVSWYQQKPEQSPKVLIYGASNRYTGVPDRFTGSGSATDFSLTISNVQAEDLADYHCGQSYRYPLTFGAGTKLELKGGGGSGGGGSGGGGSEVQLQQSGPDLMKPGASVKISCKASGYSFTNYYVHWVKQSLDKSLEWIGYVDPFNGDFNYNQKFKDKATLTVDKSSSTAYMHLSSLTSEDSAVYYCARGGLDWYDTSYWYFDVWGAGTAVTVSS
notes: also called phage harboring the original mouse single chain antibody; not shown: fusion to the phage coat protein; display format not described
As for B2, the Kd with CD133 protein [2] is 0.0185 nM; with CD133 protein [3], 0.0174 nM; with CD133 protein [4] it was 0.0256 nM and 0.0269 nM.

B3: humanized fusion protein hscFv-lh-GPVI-Fc (Fc fusion)
chain: DIQMTQSPKSLSASVGDRVTITCKASENVDTYVSWYQQKPGKAPKVLIYGASNRYTGVPSRFTGSGSATDFTLTISSLQPEDFATYYCGQSYRYPLTFAQGTKVEIKGGGGSGGGGSGGGGSEVQLVQSGAEVKKPGASVKVSCKASGYSFTNYYVHWVKQAPGQGLEWMGYVDPFNGDFNYNQKFKDRVTLTVDTSTSTAYMELSSLTSEDRAVYYCARGGLDWYDTSYWYFDVWGQGTLVTVSSQSGPLPKPSLQALPSSLVPLEKPVTLRCQGPPGVDLYRLEKLSSSRYQDQAVLFIPAMKRSLAGRYRCSYQNGSLWSLPSDQLELVATGVFAKPSLSAQPGPAVSSGGDVTLQCQTRYGFDQFALYKEGDPAPYKNPERWYRASFPIITVTAAHSGTYRCYSFSSRDPYLWSAPSDPLELVVTGTSVTPSRLPTEPPSSVAEFSEATAELTVSFTNKVFTTETSRSITTSPKESDSPAGPARQYYTKGNGGRVECPPCPAPPVAGPSVFLFPPKPKDTLMISRTPEVTCVVVDVSHEDPEVQFNWYVDGVEVHNAKTKPREEQFNSTFRVVSVLTVVHQDWLNGKEYKCKVSNKGLPAPIEKTISKTKGQPREPQVYTLPPSREEMTKNQVSLTCLVKGFYPSDIAVEWESNGQPENNYKTTPPMLDSDGSFFLYSKLTVDKSRWQQGNVFSCSVMHEALHNHYTQKSLSLSPGK
In turn, B3 gave an EC50 with bovine collagen I of 4.7 nM. The IC50 in the assay with CD133 protein [5] was 2.7 nM.
